B1: TCR F (TCR, V domains shown)
Valpha: GENVEQHPSTLSVQEGDSAVIKCTYSDSASNYFPWYKQELGKRPQLIIDIRSNVGEKKDQRIAVTLNKTAKHFSLHITETQPEDSAVYFCAAHLTGGGNKLTFGTGTQLKVEL
Vbeta: DTGVSQDPRHKITKRGQNVTFRCDPISEHNRLYWYRQTLGQGPEFLTYFQNEAQLEKSRLLSDRFSAERPKGSFSTLEIQRTEQGDSAMYLCASSSRAGGETQYFGPGTRLLVL
B2: TCR C (TCR, V domains shown)
Valpha: KQEVTQIPAALSVPEGENLVLNCSFTDSAIYNLQWFRQDPGKGLTSLLLIQSSQREQTSGRLNASLDKSSGRSTLYIAASQPGDSATYLCAVRPRTSGTYKYIFGTGTRLKVLA
Vbeta: DTGVSQDPRHKITKRGQNVTFRCDPISEHNRLYWYRQTLGQGPEFLTYFQNEAQLEKSRLLSDRFSAERPKGSFSTLEIQRTEQGDSAMYLCASTELSGNTIYFGEGSWLTVV
B3: TCR D (TCR, V domains shown)
Valpha: AQSVAQPEDQVNVAEGNPLTVKCTYSVSGNPYLFWYVQYPNRGLQFLLKYITGDNLVKGSYGFEAEFNKSQTSFHLKKPSALVSDSALYFCAVRAPTSGTYKYIFGTGTRLKVLA
Vbeta: B2 Vbeta with T95S, E96L, L97V, T101E, I102Q, Y103F, E106P, S108T, W109R, V113L
B4: TCR W (TCR, V domains shown)
Valpha: B3 Valpha with A95D
Vbeta: DTGVSQDPRHKITKRGQNVTFRCDPISEHNRLYWYRQTLGQGPEFLTYFQNEAQLEKSRLLSDRFSAERPKGSFSTLEIQRTEQGDSAMYLCASSLVQGNEQFFGPGTRLTVL
B5: TCR X (TCR, V domains shown)
Valpha: GENVEQHPSTLSVQEGDSAVIKCTYSDSASNYFPWYKQELGKRPQLIIDIRSNVGEKKDQRIAVTLNKTAKHFSLHITETQPEDSAVYFCVVLGGAGNMLTFGGGTRLMVKP
Vbeta: B4 Vbeta with V97T, Q98V, G99S, N100D, E101G, Q102Y, F103T, P106S, L113V
B6: TCR E (TCR, V domains shown)
Valpha: B3 Valpha with A95G
Vbeta: B4 Vbeta with Q98S
B7: TCR V (TCR, V domains shown)
Valpha: AQTVTQSQPEMSVQEAETVTLSCTYDTSENNYYLFWYKQPPSRQMILVIRQEAYKQQNATENRFSVNFQKAAKSFSLKISDSQLGDTAMYFCALYSGAGSYQLTFGKGTKLSVIP
Vbeta: DTGVSQDPRHKITKRGQNVTFRCDPISEHNRLYWYRQTLGQGPEFLTYFQNEAQLEKSRLLSDRFSAERPKGSFSTLEIQRTEQGDSAMYLCASSLAAGMNTEAFFGQGTRLTVV
B8: TCR A (TCR, V domains shown)
Valpha: AQSVAQPEDQVNVAEGNPLTVKCTYSVSGNPYLFWYVQYPNRGLQFLLKYITGDNLVKGSYGFEAEFNKSQTSFHLKKPSALVSDSALYFCAVRGGSYKYIFGTGTRLKVLA
Vbeta: B1 Vbeta with S95T, S96P, R97G, A98T, G99V, G100Y, E101N, T102E, Y104F, L112T
B9: TCR B (TCR, V domains shown)
Valpha: SQQGEEDPQALSIQEGENATMNCSYKTSINNLQWYRQNSGRGLVHLILIRSNEREKHSGRLRVTLDTSKKSSSLLITASRAADTASYFCATAPGSGTYKYIFGTGTRLKVLA
Vbeta: DTGVSQDPRHKITKRGQNVTFRCDPISEHNRLYWYRQTLGQGPEFLTYFQNEAQLEKSRLLSDRFSAERPKGSFSTLEIQRTEQGDSAMYLCAAPPDTYNSPLHFGNGTRLTVT
B10: TCR G (TCR, V domains shown)
Valpha: SQQGEEDPQALSIQEGENATMNCSYKTSINNLQWYRQNSGRGLVHLILIRSNEREKHSGRLRVTLDTSKKSSSLLITASRAADTASYFCAGTGANNLFFGTGTRLTVIP
Vbeta: B4 Vbeta with V97I, Q98R, N100E, E101T, F103Y, T111L
B11: TCR O (TCR, V domains shown)
Valpha: GENVEQHPSTLSVQEGDSAVIKCTYSDSASNYFPWYKQELGKRPQLIIDIRSNVGEKKDQRIAVTLNKTAKHFSLHITETQPEDSAVYFCAMRNNNDMRFGAGTRLTVKP
Vbeta: B4 Vbeta with V97T, Q98T, G99L, N100D, E101T, F103Y
B12: TCR N (TCR, V domains shown)
Valpha: B11 Valpha with M92A, R93I, N94V, N95G, D97Q, M98F, R99Y, A102T, R105S, K109I
Vbeta: B4 Vbeta with L96E, V97T, Q98T, G99L, N100S
B13: TCR M (TCR, V domains shown)
Valpha: B2 Valpha with P94G, R95S
Vbeta: B4 Vbeta with Q98A, N100E, E101T, F103Y, T111L
B14: TCR Q (TCR, V domains shown)
Valpha: GENVEQHPSTLSVQEGDSAVIKCTYSDSASNYFPWYKQELGKRPQLIIDIRSNVGEKKDQRIAVTLNKTAKHFSLHITETQPEDSAVYFCAASNPTGANSKLTFGKGITLSVRP
Vbeta: B4 Vbeta with Q98R, G99N, N100E, E101K, Q102L, P106S, R109Q, T111S
B15: TCR I (TCR, V domains shown)
Valpha: B2 Valpha with P94G, R95T
Vbeta: B4 Vbeta with L96F, V97L, Q98A, N100E, E101T, F103Y, T111L
B16: TCR R (TCR, V domains shown)
Valpha: SQQGEEDPQALSIQEGENATMNCSYKTSINNLQWYRQNSGRGLVHLILIRSNEREKHSGRLRVTLDTSKKSSSLLITASRAADTASYFCATEMNSNYQLIWGAGTKLIIKP
Vbeta: B7 Vbeta with L96P, A97L, A98K, M100S, T102Y, E103G, A104Y, F105T, Q108S
B17: TCR L (TCR, V domains shown)
Valpha: KQEVTQIPAALSVPEGENLVLNCSFTDSAIYNLQWFRQDPGKGLTSLLLIQSSQREQTSGRLNASLDKSSGRSTLYIAASQPGDSATYLCAVTRTGANNLFFGTGTRLTVIP
Vbeta: DTGVSQDPRHKITKRGQNVTFRCDPISEHNRLYWYRQTLGQGPEFLTYFQNEAQLEKSRLLSDRFSAERPKGSFSTLEIQRTEQGDSAMYLCASSLGVLGIGYTFGSGTRLTVV
B18: TCR J (TCR, V domains shown)
Valpha: QKEVEQDPGPLSVPEGAIVSLNCTYSNSAFQYFMWYRQYSRKGPELLMYTYSSGNKEDGRFTAQVDKSSKYISLFIRDSQPSDSATYLCAMRATSGTYKYIFGTGTRLKVLA
Vbeta: DTGVSQDPRHKITKRGQNVTFRCDPISEHNRLYWYRQTLGQGPEFLTYFQNEAQLEKSRLLSDRFSAERPKGSFSTLEIQRTEQGDSAMYLCAVPGGSSYNEQFFGPGTRLTVL
B19: TCR P (TCR, V domains shown)
Valpha: AQSVSQHNHHVILSEAASLELGCNYSYGGTVNLFWYVQYPGQHLQLLLKYFSGDPLVKGIKGFEAEFIKSKFSFNLRKPSVQWSDTAEYFCAVRDSGAGSYQLTFGKGTKLSVIP
Vbeta: B18 Vbeta with V94S, P95L, G96T, S98T, S99V
B20: TCR K (TCR, V domains shown)
Valpha: DAKTTQPNSMESNEEEPVHLPCNHSTISGTDYIHWYRQLPSQGPEYVIHGLTSNVNNRMASLAIAEDRKSSTLILHRATLRDAAVYYCILRAGSGTYKYIFGTGTRLKVLA
Vbeta: B18 Vbeta with V94S, P95S, G96P, S98T, S99V
B21: TCR S (TCR, V domains shown)
Valpha: DAKTTQPPSMDCAEGRAANLPCNHSTISGNEYVYWYRQIHSQGPQYIIHGLKNNETNEMASLIITEDRKSSTLILPHATLRDTAVYYCIVRASTSGTYKYIFGTGTRLKVLA
Vbeta: B18 Vbeta with V94S, P95S, G96P, S98T, S99V
B22: TCR T (TCR, V domains shown)
Valpha: SQQGEEDPQALSIQEGENATMNCSYKTSINNLQWYRQNSGRGLVHLILIRSNEREKHSGRLRVTLDTSKKSSSLLITASRAADTASYFCATPSGNTPLVFGKGTRLSVIA
Vbeta: B1 Vbeta with F45L, S96Q, R97L, G100V, E101I, T102E, Y104F, L112T
B23: TCR H (TCR, V domains shown)
Valpha: GENVEQHPSTLSVQEGDSAVIKCTYSDSASNYFPWYKQELGKRPQLIIDIRSNVGEKKDQRIAVTLNKTAKHFSLHITETQPEDSAVYFCAAPLAGGGADGLTFGKGTHLIIQP
Vbeta: B4 Vbeta with L96T, V97T, Q98L, G99I, N100T, E101G, Q102Y, F103T, P106S, L113V

Data on 23 molecules can be found in patent US20240270813A1 (UNIVERSITY OF PITTSBURGH OF THE COMMONWEALTH SYSTEM OF …, published 2024).

Positions count from the first letter of the chain named. Where “and” joins values, the source holds several entries; their conditions need not be identical. Equal values may be shown once.

The first test addresses T1, minor histocompatibility antigen HA-1, immunogenic H variant peptide on HLA-A*02:01 (human).
T1 peptide: VLHDDLLEA
In words: multimer staining.
Regarding B1, the binding result is “recognises”.
Still for that read-out and setting: the result for B2 reads “recognises”; that for B3, “recognises”; that for B4, “recognises”.
Still for that read-out and setting: the result for B5 reads “recognises”.
Turning to B6, the binding result is “recognises”.
In the case of B7, the binding result is listed as “recognises”.
Same read-out and setting: the result for B8 reads “recognises”.

A further test addresses T1, minor histocompatibility antigen HA-1, …. Kind of test: CD69 on TCR-transduced Jurkat J.RT3-T3.5-CD8; overnight with A*0201 LCLs (1:1) and titrated HA-1 H peptide; given as a range, upper bound given; full-length, on cells.
For B9, the EC50 of peptide is ≤ 100 ng/mL and ≤ 100 nM.
Take B10: the EC50 of peptide is ≤ 100 ng/mL and ≤ 100 nM.
On the same count and under the same terms, the result for B11 reads ≤ 100 ng/mL and ≤ 100 nM; that for B12, ≤ 100 ng/mL and ≤ 100 nM; that for B13, ≤ 100 ng/mL and ≤ 100 nM.
As to B14, the EC50 of peptide is ≤ 1000 ng/mL and ≤ 1 µM.
As to B15, the EC50 of peptide was ≤ 100 ng/mL and ≤ 100 nM.
Still for that read-out and setting: the result for B16 reads ≤ 1000 ng/mL and ≤ 1 µM; that for B17, ≤ 100 ng/mL and ≤ 100 nM; that for B18, ≤ 100 ng/mL and ≤ 100 nM.
Same read-out and setting: next, B19: ≤ 100 ng/mL and ≤ 100 nM; B20: ≤ 100 ng/mL and ≤ 100 nM.
In the case of B21, the EC50 of peptide is ≤ 1000 ng/mL and ≤ 1 µM.
On the same count and under the same terms, next, B22: ≤ 1000 ng/mL and ≤ 1 µM; B23: ≤ 100 ng/mL and ≤ 100 nM.
